Laboratory results reported in publication PMC11514473, “The transition state for coupled folding and binding of a disordered DNA binding domain resembles the unbound state” (Nucleic Acids Research, 2024).

Columns and labels:
Assay in all cases: stopped-flow fluorescence (koff/kon); 10 mM Mg2+; 10 mM MES pH 6.5, 150 mM NaCl, 10 mM MgCl2, 0.05% Tween-20, 25 C; NMR: 10 mM Tris-d11, 150 mM NaCl, 10 mM MgCl2, 1 mM NaN3, 5% D2O (NOE at 25 C)
Conditions in all cases: protein: recombinant; tags: extra N-terminal Gly; chain copies: 2; label: 5' Alexa Fluor 488; hairpin (self-annealing, 11 bp stem, CCCC loop)
285bZIP E295G = molecular target: T1, 285bZIP E295G (human, UniProt P16220-1 285-339, C300S;C310S;C337S;E295G)
T1 sequence: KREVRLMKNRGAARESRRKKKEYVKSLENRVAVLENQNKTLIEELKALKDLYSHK

285bZIP V288G = molecular target: T2, 285bZIP V288G (human, UniProt P16220-1 285-339, C300S;C310S;C337S;V288G)
T2 sequence: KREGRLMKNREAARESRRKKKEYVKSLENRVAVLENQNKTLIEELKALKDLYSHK

285bZIP E287A = molecular target: T3, 285bZIP E287A (human, UniProt P16220-1 285-339, C300S;C310S;C337S;E287A)
T3 sequence: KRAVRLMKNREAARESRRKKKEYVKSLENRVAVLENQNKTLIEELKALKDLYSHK

285bZIP E299A = molecular target: T4, 285bZIP E299A (human, UniProt P16220-1 285-339, C300S;C310S;C337S;E299A)
T4 sequence: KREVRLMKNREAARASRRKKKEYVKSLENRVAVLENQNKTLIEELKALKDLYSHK

285bZIP R302A = molecular target: T5, 285bZIP R302A (human, UniProt P16220-1 285-339, C300S;C310S;C337S;R302A)
T5 sequence: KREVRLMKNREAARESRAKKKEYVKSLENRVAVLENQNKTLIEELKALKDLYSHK

285bZIP E306G = molecular target: T6, 285bZIP E306G (human, UniProt P16220-1 285-339, C300S;C310S;C337S;E306G)
T6 sequence: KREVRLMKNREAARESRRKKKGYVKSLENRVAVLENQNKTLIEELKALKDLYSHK

285bZIP E306A = molecular target: T7, 285bZIP E306A (human, UniProt P16220-1 285-339, C300S;C310S;C337S;E306A)
T7 sequence: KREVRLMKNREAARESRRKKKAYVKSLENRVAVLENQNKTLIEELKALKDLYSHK

285bZIP E295G/E299G = molecular target: T8, 285bZIP E295G/E299G (human, UniProt P16220-1 285-339, C300S;C310S;C337S;E295G;E299G)
T8 sequence: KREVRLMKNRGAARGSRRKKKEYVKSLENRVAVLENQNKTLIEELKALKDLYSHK

285bZIP E295A/E299A = molecular target: T9, 285bZIP E295A/E299A (human, UniProt P16220-1 285-339, C300S;C310S;C337S;E295A;E299A)
T9 sequence: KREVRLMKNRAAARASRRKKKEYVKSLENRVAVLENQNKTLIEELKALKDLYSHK

285bZIP E287G = molecular target: T10, 285bZIP E287G (human, UniProt P16220-1 285-339, C300S;C310S;C337S;E287G)
T10 sequence: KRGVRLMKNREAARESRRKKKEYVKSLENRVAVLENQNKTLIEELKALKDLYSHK

Binder: CCTGACGTCAGCCCCCTGACGTCAGG (structured_DNA) [AlexaFluor488-CREh]
- Kd (285bZIP E295G): 6 ± 0.4 nM
- Kd (285bZIP V288G): 2.77 ± 0.16 nM
- Kd (285bZIP E287A): 1.89 ± 0.11 nM
- Kd (285bZIP E299A): 0.0711 ± 0.0011 nM
- Kd (285bZIP R302A): 13.9 ± 1.8 nM
- Kd (285bZIP E306G): 3.9 ± 0.2 nM
- Kd (285bZIP E306A): 0.139 ± 0.012 nM
- Kd (285bZIP E295G/E299G): 170 ± 50 nM
- Kd (285bZIP E295A/E299A): 0.102 ± 0.008 nM
- Kd (285bZIP E287G): 4.6 ± 0.6 nM
